From article PMC3951439 (Science (New York, N.Y.), 2013)

Molecular target: PRC2 (Homo sapiens, UniProt Q15910)
Experiment: PRC2 histone methyltransferase assay on nucleosomes
Format: biochemical
Conditions: peptide titration, µM concentrations; fluorography (Fig. 3E, fig. S3, D and E)

Chain of PRC2 (Q15910 whole entry): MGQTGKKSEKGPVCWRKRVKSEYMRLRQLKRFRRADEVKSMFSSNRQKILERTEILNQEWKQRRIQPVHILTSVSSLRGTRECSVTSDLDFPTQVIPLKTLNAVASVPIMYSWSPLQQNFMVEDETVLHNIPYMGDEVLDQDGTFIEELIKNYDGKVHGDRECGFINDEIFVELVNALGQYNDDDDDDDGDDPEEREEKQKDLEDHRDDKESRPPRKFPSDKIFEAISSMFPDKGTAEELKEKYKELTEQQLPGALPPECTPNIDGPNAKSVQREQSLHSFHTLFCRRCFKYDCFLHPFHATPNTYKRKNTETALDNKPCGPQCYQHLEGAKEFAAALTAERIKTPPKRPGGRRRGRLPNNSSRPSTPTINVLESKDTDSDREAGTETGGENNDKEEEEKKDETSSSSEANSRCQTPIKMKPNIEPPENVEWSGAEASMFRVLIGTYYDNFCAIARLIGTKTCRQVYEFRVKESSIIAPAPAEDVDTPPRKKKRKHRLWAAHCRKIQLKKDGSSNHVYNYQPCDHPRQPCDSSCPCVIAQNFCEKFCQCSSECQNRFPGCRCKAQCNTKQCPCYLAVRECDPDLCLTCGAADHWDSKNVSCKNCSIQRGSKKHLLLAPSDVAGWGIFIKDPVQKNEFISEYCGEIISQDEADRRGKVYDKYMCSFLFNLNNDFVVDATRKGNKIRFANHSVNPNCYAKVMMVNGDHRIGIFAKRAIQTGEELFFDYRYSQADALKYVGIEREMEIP
Chain of PRC2 (O75530 whole entry partner): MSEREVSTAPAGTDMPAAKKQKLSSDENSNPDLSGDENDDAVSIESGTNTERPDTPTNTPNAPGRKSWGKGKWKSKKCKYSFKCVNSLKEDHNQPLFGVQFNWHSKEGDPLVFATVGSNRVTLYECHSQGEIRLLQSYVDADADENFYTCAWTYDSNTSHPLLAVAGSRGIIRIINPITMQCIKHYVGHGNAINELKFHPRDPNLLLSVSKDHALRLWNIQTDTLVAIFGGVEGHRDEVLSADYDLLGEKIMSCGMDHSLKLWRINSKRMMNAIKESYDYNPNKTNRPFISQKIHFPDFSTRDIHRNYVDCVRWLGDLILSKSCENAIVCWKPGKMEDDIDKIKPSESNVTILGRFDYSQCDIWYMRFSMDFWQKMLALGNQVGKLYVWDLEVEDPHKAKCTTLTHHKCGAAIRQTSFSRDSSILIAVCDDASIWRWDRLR
Chain of PRC2 (Q6ZN18 whole entry partner): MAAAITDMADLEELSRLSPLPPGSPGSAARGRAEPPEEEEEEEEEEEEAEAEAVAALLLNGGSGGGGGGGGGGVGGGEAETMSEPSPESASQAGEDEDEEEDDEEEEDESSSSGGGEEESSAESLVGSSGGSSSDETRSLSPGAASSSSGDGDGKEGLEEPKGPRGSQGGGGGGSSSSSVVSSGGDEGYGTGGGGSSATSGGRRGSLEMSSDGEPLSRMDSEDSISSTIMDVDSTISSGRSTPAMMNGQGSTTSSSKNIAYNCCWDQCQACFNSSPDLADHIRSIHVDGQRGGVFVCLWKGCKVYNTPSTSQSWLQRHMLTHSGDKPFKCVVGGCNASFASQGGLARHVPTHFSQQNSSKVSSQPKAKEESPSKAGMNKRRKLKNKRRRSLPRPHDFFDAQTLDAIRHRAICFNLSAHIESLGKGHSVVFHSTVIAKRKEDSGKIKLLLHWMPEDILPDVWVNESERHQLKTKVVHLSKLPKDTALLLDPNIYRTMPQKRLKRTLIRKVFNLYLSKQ
Chain of PRC2 (Q15022 whole entry partner): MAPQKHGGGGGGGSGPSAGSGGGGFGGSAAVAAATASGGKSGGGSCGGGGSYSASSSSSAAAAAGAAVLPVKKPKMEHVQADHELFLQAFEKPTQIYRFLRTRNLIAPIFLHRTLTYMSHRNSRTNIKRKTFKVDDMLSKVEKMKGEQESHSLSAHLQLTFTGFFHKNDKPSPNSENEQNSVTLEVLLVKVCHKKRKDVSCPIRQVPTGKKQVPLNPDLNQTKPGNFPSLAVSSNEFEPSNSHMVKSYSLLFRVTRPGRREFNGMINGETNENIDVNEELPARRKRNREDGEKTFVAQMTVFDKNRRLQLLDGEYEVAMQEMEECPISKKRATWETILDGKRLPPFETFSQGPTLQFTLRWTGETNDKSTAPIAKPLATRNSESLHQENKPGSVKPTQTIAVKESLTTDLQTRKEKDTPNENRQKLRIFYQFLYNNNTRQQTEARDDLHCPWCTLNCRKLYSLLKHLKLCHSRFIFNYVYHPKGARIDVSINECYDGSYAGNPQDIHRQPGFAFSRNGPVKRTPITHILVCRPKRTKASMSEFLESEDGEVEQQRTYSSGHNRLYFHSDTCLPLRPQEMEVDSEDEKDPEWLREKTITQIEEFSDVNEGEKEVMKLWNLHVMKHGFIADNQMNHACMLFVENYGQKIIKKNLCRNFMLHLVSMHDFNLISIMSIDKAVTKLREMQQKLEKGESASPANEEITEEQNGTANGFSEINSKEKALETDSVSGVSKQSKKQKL
Chain of PRC2 (Q09028 whole entry partner): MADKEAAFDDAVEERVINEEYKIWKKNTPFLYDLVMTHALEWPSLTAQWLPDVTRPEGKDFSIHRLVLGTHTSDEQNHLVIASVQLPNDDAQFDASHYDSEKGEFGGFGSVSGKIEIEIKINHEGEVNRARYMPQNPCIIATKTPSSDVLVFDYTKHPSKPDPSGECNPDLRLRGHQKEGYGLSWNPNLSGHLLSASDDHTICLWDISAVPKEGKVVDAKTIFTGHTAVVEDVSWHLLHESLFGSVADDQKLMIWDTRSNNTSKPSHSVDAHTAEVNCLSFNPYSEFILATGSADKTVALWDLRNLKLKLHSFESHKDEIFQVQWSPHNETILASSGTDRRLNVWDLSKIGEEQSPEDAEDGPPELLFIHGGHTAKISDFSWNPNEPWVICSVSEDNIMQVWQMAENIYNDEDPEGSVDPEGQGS

## K27ac: H3 peptide (18 to 37) containing K27acetyl
  dose-dependent inhibition of PRC2 methyltransferase activity: not the K27ac peptide, could inhibit PRC2-dependent methyltransferase activity in a dose-dependent manner
